Where two headings read alike, the source gives them in different places.
Key:
Experiment in all cases: EMSA
[1] = biological target: T1, Runx1 Runt domain (CBF alpha2);CBFbeta (human?;human?, UniProt Q01196;Q13951 50-183;2-135, |)
[2] = biological target: T1, Runx1 Runt domain (CBF alpha2);CBFbeta; remark: listed apart in the source
[3] = biological target: T1, Runx1 Runt domain (CBF alpha2);CBFbeta; remark: listed apart in the source
[4] = biological target: T1, Runx1 Runt domain (CBF alpha2);CBFbeta; remark: listed apart in the source

T1 sequence (Q01196 50-183, chain 1 of 2): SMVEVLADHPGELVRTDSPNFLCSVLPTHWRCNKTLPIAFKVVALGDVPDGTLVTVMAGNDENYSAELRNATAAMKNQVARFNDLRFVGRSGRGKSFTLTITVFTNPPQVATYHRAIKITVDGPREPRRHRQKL
T1 sequence (Q13951 2-135, chain 2 of 2): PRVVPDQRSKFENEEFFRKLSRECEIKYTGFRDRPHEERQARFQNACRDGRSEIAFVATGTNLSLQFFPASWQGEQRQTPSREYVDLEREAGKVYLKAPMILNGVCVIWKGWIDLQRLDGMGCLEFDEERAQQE

B1: GM450Δ443 (dsDNA)
DNA 1: AGATCTCTCACTGCCCACAAAC
DNA 2: AGGTTTGTGGGCAGTGAGAGAT
B1: binds [1].

B2: WT GM450 (dsDNA)
DNA 1: AGATGTGTGGCTGCCCACAAAC
DNA 2: AGGTTTGTGGGCAGCCACACAT
B2: binds [2].

B3: GM450Δ443/452 (dsDNA)
DNA 1: AGATCTCTCACTGCGTAGAAAC
DNA 2: AGGTTTCTACGCAGTGAGAGAT
B3: no binding [3].

B4: Crystal palindrome (dsDNA)
DNA 1: AGATGTGCGGTCGACCGCAAAC
DNA 2: AGGTTTGCGGTCGACCGCACAT
B4: binds [4].

B5: GM450Δ452 (dsDNA)
DNA 1: AGATGTGTGGCTGCGTAGAAAC
DNA 2: AGGTTTCTACGCAGCCACACAT
B5: binds [1].
